# Test results reported in the supplement of paper PMC10567573.
# B1: SPSB1 (parent)
# chain: DMRDPTYRPLKQELQGLDYCKPTR
# Variants of: B1
# Assay: protein stability index of a GFP-peptide fusion (GPS, HEK-293T) (PSI 1-6); higher = more stable
# Details: c terminus: a fixed tail appended
# 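Note: lentivirally expressed fusions sorted by FACS into six bins by GFP to DsRed ratio, PSI derived from sequencing read proportions per bin multiplied by bin number.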
row,Variant,protein stability index
1,D18T,3.66
2,G16D,3.34
3,G16V,2.71
4,G16E,2.93
5,P9K,2.94
6,P9H,2.35
7,R24F,2.41
8,R24K,3.09
9,R24E,4.56
10,L14M,3.68
11,R3L,2.9
12,T23P,4.33
13,T23Q,3.47
14,T23C,3.3
15,T23H,3.19
16,K11R,3.54
17,P5G,3.19
18,K21D,1.74
19,L17C,3.85
